Source: US20230381350A1 (PRECIRIX N V, published 2023)

T1: human FAP recombinant protein (human, UniProt Q12884 26-760)
T1 construct: The protein was biotinylated with sulfo-NHS-SS-biotin for bio-layer interferometry; also called extracellular domain of human FAP with N-terminal His6-tag
T1 sequence: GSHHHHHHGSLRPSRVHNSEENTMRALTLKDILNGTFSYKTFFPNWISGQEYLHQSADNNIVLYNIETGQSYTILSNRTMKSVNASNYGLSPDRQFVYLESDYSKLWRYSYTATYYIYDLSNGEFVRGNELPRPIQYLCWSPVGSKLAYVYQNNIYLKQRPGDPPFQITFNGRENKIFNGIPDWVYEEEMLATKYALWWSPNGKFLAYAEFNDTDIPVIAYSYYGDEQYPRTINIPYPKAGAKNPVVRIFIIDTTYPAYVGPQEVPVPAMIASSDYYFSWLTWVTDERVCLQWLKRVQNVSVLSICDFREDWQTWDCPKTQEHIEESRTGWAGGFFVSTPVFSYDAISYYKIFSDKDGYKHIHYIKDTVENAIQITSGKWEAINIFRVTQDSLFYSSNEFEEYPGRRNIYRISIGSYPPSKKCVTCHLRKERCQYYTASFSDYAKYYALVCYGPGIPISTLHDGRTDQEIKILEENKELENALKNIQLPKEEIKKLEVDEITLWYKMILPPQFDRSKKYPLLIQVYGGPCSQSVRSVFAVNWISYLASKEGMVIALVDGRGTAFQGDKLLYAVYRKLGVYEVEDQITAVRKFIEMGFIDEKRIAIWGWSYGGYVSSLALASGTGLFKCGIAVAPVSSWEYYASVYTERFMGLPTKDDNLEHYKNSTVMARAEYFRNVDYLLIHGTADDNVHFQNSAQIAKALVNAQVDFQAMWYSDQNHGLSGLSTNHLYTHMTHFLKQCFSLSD

T2: murine FAP recombinant protein (murine, UniProt P97321 26-761)
T2 construct: The protein was biotinylated for bio-layer interferometry; also called extracellular domain of murine FAP with N-terminal His6-tag
T2 sequence: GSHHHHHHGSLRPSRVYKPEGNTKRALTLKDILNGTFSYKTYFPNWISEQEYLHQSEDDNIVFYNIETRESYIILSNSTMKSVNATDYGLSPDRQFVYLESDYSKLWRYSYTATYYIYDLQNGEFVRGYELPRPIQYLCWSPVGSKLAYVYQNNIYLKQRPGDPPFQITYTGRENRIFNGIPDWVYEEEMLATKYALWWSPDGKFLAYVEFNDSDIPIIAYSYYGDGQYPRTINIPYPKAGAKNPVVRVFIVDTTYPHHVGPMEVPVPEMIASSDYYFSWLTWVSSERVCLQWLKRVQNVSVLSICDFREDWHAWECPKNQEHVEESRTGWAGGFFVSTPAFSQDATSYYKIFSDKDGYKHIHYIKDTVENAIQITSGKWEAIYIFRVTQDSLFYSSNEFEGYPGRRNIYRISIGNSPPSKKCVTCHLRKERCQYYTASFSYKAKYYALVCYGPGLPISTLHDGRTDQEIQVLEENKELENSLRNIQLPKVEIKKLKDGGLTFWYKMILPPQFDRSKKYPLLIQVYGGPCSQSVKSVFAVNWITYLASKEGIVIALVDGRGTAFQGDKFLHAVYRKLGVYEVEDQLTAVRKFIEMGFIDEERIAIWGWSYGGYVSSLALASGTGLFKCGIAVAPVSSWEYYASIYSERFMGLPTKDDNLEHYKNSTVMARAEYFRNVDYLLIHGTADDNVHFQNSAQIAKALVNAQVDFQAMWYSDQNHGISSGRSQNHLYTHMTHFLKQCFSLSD

T3: human FAP expressed on cells (human, UniProt Q12884 1-760)
T3 construct: also called human FAP cell surface protein; human FAP receptor
T3 sequence: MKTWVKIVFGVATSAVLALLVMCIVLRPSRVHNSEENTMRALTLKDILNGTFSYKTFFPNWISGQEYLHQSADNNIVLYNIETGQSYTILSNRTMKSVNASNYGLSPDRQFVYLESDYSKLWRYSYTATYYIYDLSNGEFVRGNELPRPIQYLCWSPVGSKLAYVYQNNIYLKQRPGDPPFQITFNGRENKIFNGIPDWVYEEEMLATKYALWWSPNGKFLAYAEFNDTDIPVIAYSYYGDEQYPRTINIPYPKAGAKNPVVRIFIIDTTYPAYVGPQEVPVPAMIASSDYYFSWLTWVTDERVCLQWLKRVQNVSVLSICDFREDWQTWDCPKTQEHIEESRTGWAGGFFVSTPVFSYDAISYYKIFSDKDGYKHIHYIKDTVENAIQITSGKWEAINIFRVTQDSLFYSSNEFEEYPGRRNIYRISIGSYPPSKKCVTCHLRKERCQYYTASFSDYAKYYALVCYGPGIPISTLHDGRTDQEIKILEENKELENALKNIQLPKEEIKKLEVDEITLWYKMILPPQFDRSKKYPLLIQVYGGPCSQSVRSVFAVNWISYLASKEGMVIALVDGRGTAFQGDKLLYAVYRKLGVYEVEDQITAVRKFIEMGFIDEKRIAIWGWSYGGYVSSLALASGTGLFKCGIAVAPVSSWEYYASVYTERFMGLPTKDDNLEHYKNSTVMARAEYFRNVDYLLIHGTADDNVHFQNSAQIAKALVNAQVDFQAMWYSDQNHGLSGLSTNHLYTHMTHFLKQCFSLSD

T4: murine FAP expressed on cells (murine, UniProt P97321 1-761)
T4 construct: also called murine FAP cell surface protein
T4 sequence: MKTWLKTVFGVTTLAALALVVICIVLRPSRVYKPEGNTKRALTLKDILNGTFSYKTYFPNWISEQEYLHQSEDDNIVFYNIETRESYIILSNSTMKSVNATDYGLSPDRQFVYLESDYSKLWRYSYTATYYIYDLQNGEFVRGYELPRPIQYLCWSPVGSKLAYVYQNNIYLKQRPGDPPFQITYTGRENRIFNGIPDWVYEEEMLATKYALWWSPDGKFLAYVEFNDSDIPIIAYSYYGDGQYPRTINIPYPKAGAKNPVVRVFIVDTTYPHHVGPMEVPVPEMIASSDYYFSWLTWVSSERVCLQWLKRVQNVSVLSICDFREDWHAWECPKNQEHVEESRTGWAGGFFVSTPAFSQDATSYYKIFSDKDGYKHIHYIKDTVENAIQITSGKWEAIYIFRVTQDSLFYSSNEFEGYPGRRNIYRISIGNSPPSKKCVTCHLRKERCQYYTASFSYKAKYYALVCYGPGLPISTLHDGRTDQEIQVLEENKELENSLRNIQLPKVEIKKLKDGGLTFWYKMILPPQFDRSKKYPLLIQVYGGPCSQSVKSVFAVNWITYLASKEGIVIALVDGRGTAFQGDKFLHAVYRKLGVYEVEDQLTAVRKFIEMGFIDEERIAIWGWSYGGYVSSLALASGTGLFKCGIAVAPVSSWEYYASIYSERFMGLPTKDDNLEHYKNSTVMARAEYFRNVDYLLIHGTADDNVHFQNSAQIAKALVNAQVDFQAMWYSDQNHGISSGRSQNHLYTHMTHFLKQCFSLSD


Key:
[1] = molecular target: T1, human FAP recombinant protein; experiment: bio-layer interferometry (Octet RED96), biotinylated human FAP on streptavidin sensor, kinetic titration, 25 °C
Method: (§1) The kinetic parameters of antigen binding by purified VHHs were determined via bio-layer interferometry with an Octet RED96 instrument (ForteBio). The assay was performed at 25° C. with shaking at 1000 rpm. Streptavidin coated SA sensors were equilibrated in assay buffer (HBS supplemented with 0.5% BSA, 0.1% Tween), before loading for 5 min with the biotinylated FAP recombinant protein at a concentration of 5 μg/ml. His₆-tagged VHHs were analyzed in a threefold serial dilution from 30 nM to 0.4 nM in assay buffer (except for VHH B3 binding murine FAP recombinant protein, for which a fivefold serial dilution from 1000 nM to 1.6 nM was employed). First the baseline was measured for 180 s in assay buffer, followed by 5 subsequent association phases of 180 s with the VHH preparations in increasing order of concentration, with 75 s intermediate dissociation phases in assay buffer in between, and a final dissociation phase in assay buffer of 30 min. In every assay a reference sensor loaded with FAP recombinant protein was included that was incubated in assay buffer during the association phases.
(§2) Binding curves were exported and analyzed using the BIAevaluation analysis software (GE Healthcare). First the y-axes of the different curves were aligned to the median of the last 5 s of the baseline measurement. Subsequently, the sensorgram of the reference sensor was subtracted from all other sensorgrams. The resulting binding curve was fitted using a general fit with the ‘kinetic titration with drift’ binding model (1:1 (antigen:analyte) model; Karlsson, R. et al (2006), Analyzing a kinetic titration series using affinity biosensors. Analytical Biochemistry 349: 136-147), with Rmax fitted global, RI local and drift set to 0.
(§3) Table 7 gives an overview of the kinetic parameters of antigen binding for His₆-tagged VHHs B1, B2, B3 and B4 (SEQ ID NO: 21-24), as determined by bio-layer interferometry with biotinylated human or murine FAP recombinant protein that was loaded on the sensor.

[2] = molecular target: T2, murine FAP recombinant protein; experiment: bio-layer interferometry (Octet RED96), biotinylated murine FAP on streptavidin sensor, kinetic titration, 25 °C
Method: as §1, §2, §3

[3] = molecular target: T3, human FAP expressed on cells; experiment: saturation binding of 99mTc-labelled VHH on human FAP-expressing GM05389 cells (mean ± SD, n = 3)
Method: (§4) Next, we describe the in vitro and in vivo human and murine FAP binding potential of different VHHs after radiolabelling with the diagnostic radioisotope ^99mTc. […] His₆-tagged human/murine FAP-targeting VHHs were radiolabelled with the diagnostic radioisotope ^99mTc, according to the radiochemical procedure described in Example 3.
(§5) Next, the different cell lines were incubated with serial dilutions with concentrations ranging from 0 to 300 nM of the different ^99mTc-labelled His₆-tagged VHHs. A 100-fold excess of the corresponding unlabeled VHH was added in parallel to saturate the human or murine FAP proteins on the cancer cell surface, to assess non-specific binding. The resulting EC50 values for each of the VHHs are depicted in Table 8. […] We confirmed that ^99mTc-labeled VHH B4 only binds murine FAP cell surface protein, while VHH B3 only binds human FAP cell surface molecules in vitro.

[4] = molecular target: T3, human FAP expressed on cells; experiment: saturation binding of 99mTc-labelled VHH on human FAP-expressing HEK-293 cells (mean ± SD, n = 3)
Method: as §4, §5

[5] = molecular target: T4, murine FAP expressed on cells; experiment: saturation binding of 99mTc-labelled VHH on murine FAP-expressing HEK-293 cells (mean ± SD, n = 3)
Method: as §4, §5

[6] = molecular target: T5, human DPP IV recombinant protein (human, UniProt P27487 29-766); experiment: ELISA, coated human DPP IV, HA-His6-tagged VHH extract, anti-HA detection
T5 construct: extracellular domain; Bought protein; also called Dipeptidyl amino-peptidase IV
Method: (§6) The day before measurement, 0.1 μg recombinant protein at a concentration of 1 μg/mL in 100 mM NaHCO₃, pH 8.2 was coated in a 96-well ELISA plate (Nunc MaxiSorp). Per VHH clone also a blank coated well was foreseen (only buffer). The wells were overcoated with protein-free T20 (PBS) blocking buffer (Pierce). After washing with PBS, pH7.4, 0.05% Tween, VHH-containing bacterial freeze-thaw extract was added to every well. Binding of HA-His₆-tagged VHHs was detected by using mouse anti-HA.11 epitope tag (clone 16B12, Biolegend) as the primary Ab and goat anti-mouse IgG (whole molecule) alkaline phosphatase conjugate (Sigma-Aldrich) as the secondary Ab, with thorough washing with PBS, pH 7.4, 0.05% Tween in between. Signals were developed using phosphatase substrate (Sigma-Aldrich) in AP blot buffer (100 mM NaCl, 50 mM MgCl₂, 100 mM Tris, pH 9.5). The absorbance was determined at 405 nm using an absorbance microplate reader (Molecular Devices). Per clone the ratio was determined between the absorbance in the antigen-coated well versus the well without antigen.

[7] = molecular target: T1, human FAP recombinant protein; experiment: ELISA, coated human FAP recombinant protein, HA-His6-tagged VHH extract, anti-HA detection
Method: as §6

[8] = molecular target: T5, human DPP IV recombinant protein; experiment: ELISA on coated recombinant protein, VHH-containing bacterial extract, anti-HA detection, signal-to-background ratio
Method: as §6

T5 sequence (P27487 29-766): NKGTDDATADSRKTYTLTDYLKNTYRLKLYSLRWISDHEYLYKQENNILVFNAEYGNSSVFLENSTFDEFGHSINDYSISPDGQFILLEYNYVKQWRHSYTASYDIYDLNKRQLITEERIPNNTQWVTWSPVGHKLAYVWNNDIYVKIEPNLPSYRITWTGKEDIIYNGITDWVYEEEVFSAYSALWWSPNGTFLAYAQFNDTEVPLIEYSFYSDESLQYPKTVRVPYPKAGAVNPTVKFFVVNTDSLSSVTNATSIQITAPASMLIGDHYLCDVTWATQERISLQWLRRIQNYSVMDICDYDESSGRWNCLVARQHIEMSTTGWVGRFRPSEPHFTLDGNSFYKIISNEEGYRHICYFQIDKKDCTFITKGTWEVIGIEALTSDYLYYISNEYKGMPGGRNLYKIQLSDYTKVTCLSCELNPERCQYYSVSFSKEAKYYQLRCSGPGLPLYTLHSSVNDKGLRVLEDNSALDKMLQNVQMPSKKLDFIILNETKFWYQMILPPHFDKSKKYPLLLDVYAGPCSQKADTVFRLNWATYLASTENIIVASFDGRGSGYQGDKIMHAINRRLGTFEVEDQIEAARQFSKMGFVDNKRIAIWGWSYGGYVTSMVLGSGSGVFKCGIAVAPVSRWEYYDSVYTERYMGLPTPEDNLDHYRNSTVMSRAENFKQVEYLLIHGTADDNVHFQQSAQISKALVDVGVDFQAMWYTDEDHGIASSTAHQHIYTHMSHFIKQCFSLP

Kd [2] [nM] | koff [2] [s⁻¹] | kon [2] [M⁻¹ s⁻¹] | EC50 [3] [nM] | EC50 [4] [nM] | EC50 [5] [nM] | further results | Binder
24.3 | 0.0082 | 340000 | – | – | – | Kd [1]: 0.0744 nM; koff [1]: 3.1e-05 s⁻¹; kon [1]: 420000 M⁻¹ s⁻¹ | His6-tagged VHH B2 (VHH, Purified, unlabelled; used in bio-layer interferometry; also called B2 with His6-tag) VHH: DVQLVESGGGLVQAGGSLRLSCAVSGSISSANSMGWYRQAPGKQRDVVAGLTTGGRSHYADSVKGRFTISRDNAKNTVYLQMNSLKAEDTAVYYCNLWPPVQGYWGQGTQVTVSS
– | – | – | 3.2 | 13 | 139 | – | 99mTc-labeled His6-tagged VHH B2 (VHH, [99mTc(H2O)3(CO)3] complexed at the His6-tag, also called 99mTc-B2) VHH: DVQLVESGGGLVQAGGSLRLSCAVSGSISSANSMGWYRQAPGKQRDVVAGLTTGGRSHYADSVKGRFTISRDNAKNTVYLQMNSLKAEDTAVYYCNLWPPVQGYWGQGTQVTVSS
– | – | – | – | – | – | signal-to-background ratio [6]: ~1; signal-to-background ratio [7]: > 25; binding result [8]: no binding | HA-His6-tagged VHH B1 (VHH, Used as bacterial freeze-thaw extract in ELISA and flow cytometry, and at 1 µM in the enzyme assay; also called B1 with HA-His6-tag) VHH: QVQLQESGGGLVQPGGSLRLSCVASGRLSSSNSMAWYRQVPGKRRELVAGITGGGETNYADFVGGRFTISRDNAKNGLYLQLNGLKPEDTAAYYCNFWPPLINYWGQGTQVTVSS
– | – | – | 0.5 | 0.6 | 5.8 | – | 99mTc-labeled His6-tagged VHH B1 (VHH, [99mTc(H2O)3(CO)3] complexed at the His6-tag, also called 99mTc-B1) VHH: DVQLVESGGGLVQPGGSLRLSCVASGRLSSSNSMAWYRQVPGKRRELVAGITGGGETNYADFVGGRFTISRDNAKNGLYLQLNGLKPEDTAAYYCNFWPPLINYWGQGTQVTVSS
0.512 | 0.00056 | 1.1e+06 | – | – | – | – | His6-tagged VHH B4 (VHH, Purified, unlabelled; used in bio-layer interferometry; also called B4 with His6-tag) VHH: DVQLVESGGGLVQVGGSLRLSCVASGFTFSSYYMSWVRQAPGKGLEWVASIYADGDMTYYADSVRGRFTISRDNAKNTLYLQMNSLKSEDTAVYYCAKDPLPPYHVNQGTQVTVSS
